Patent US20050232926A1, “Antibodies specific for cancer associated antigen SM5-1 and uses thereof” (Oncomax Acquisition Corp., priority 2003, published 2005)
Residues, ends and D or L forms follow the SMILES beside them. *: point of attachment. Cbz = O=C(OCc1ccccc1)*; CH2F = FC*

Key:
QYC cells = assay: Inhibition of huSM5-1 induced apoptosis by caspase inhibitors; assay type: cell-based, human; settings: QYC cells incubated with caspase inhibitor at 50 mol/l for 2 h, then 50 ng/ml huSM5-1 antibody
Method: To determine whether caspase is involved in huSM5-1 antibody induced apoptosis, a variety of caspase inhibitors were tested to observe the inhibitory rate of apoptosis. The caspase inhibitors tested included common caspase inhibitor (Z-VAD-FMK), caspase-1 inhibitor (Z-WEHD-FMK), caspase-2 inhibitor (Z-VDVAD-FMK), caspase-3 inhibitor (Z-DEVD-FMK), caspase-4 inhibitor (Z-YVAD-FMK), caspase-6 inhibitor (Z-VEID-FMK), caspase-8 inhibitor (Z-IETD-FMK), caspase-9 inhibitor (Z-LEHD-FMK), caspase-10 inhibitor (Z-AVED-FMK), caspase-13 inhibitor (Z-LEED-FMK). QYC cells were incubated with caspase inhibitor at 50 mol/l for 2 h. QYC cells were then treated with 50 ng/ml huSM5-1 antibody. The inhibitory rates of these inhibitors were: 72% for pan-caspase inhibitor, 52% for caspase-10 inhibitor, 28% for caspase-6 inhibitor, 27% for caspase-1 inhibitor, 17% for caspase-8 inhibitor, 15% for caspase-13 inhibitor, 14% for caspase-4 inhibitor, 5% for caspase-9 inhibitor, 1% for caspase-2 inhibitor, 1% for caspase-3 inhibitor.

caspase-10 [1] = assay: Caspase-10 colorimetric activity assay in huSM5-1 treated QYC cells; assay type: cell-based, human
Method: (§1) To further confirm that huSM5-1 induced apoptosis is caspase-10 related, caspase-10 color comparing analysis kit was used to examine the increase of caspase-10 bioactivity in QYC and XJC cells. Caspase-10 activity was examined with caspase-10 analysis kit (R&D, USA) according to manufacture's instruction. Cells were incubated with 50 ng/ml huSM5-1 antibody for a certain period of time. Cells were then centrifuged and lysed in a lysis buffer (25 ul/10^6 cells) on ice for 10 min. The lysates were centrifuged, and the supernatant was transferred into new tubes and kept on ice. The enzyme activity of caspase was examined on 96-well micro-titer plate. Each reaction included 50 μl supernatant from cell lysate, 50 μl 2× reaction buffer, 10 μl fresh DTT storage solution. In addition, 5 ul caspase-10 color-comparing substrate (AEVD-pNA) was added into the reaction. The plate was incubated at 37° C. for 1-2 h and absorbance at 405 nm was then measured. The increase of caspase-10 related activity was calculated according to the following equation: Caspase-10 activity (%)=(B−C)/(A−C)×100%
(§2) “A” represents OD value of supernatant from cell lysates without huSM5-1 antibody treatment; “B” represents OD value of supernatant from cell lysate treated with huSM5-1; “C” represents OD value of negative control. Each test was done in triplicate.

[2] = system: hepatocellular carcinoma cell line QYC; assay: Cell growth inhibition by huSM5-1, MTT assay; assay type: cell-based, human
Method: Cell growth inhibition by huSM5-1 antibody was tested using MTT assay. MTT assay is based on the principle that viable cells can reduce yellow MTT into blue purple crystals. Cells of interest (1×10^3) were incubated with various concentrations of antibodies. After a period of time, 20 μl MTT (0.5 mg/ml) was added into the cell culture medium and was incubated for 2 h. After the incubation, culture medium was removed and 150 μl DMSO was added to solubilize the MTT precipitate. The reduced MTT was examined by measuring absorbance at 490 nm using Benchmark optical absorption reading machine (Bio-Rad Laboratories). The cell growth inhibition was calculated according to the following equation: Inhibition (%)=(B−C)/(A−C)×100
“A” represents the OD value of cells without huSM5-1 treatment; “B” represents the OD value of huSM5-1 treated cells; and “C” represents the OD value of negative control. Each condition was performed in triplicate.
Growth inhibition by huSM5-1 were tested in four tumor cell lines (hepatocellular carcinoma cell QYC and XJC, breast cancer cell line MDA-MB-231, and melanoma cell line CRL-1872) using MTT assay. Cells were treated with different amount of huSM5-1 (50 ng/ml, 10 ng/ml, 1 ng/ml) for 24 h, 48 h, 72 h, and 96 h. The most inhibition occurred when the concentration of the antibody was at 50 ng/ml and after 72 h treatment.

caspase-10 [3] = assay: Caspase-10 colorimetric activity assay in huSM5-1 treated XJC cells; assay type: cell-based
Method: as §1, §2

melanoma cell line A2058 [4] = assay: MTT assay of viable cells after huSM5-1 treatment; assay type: cell-based, human; settings: 570 nm, final volume 500 μl, 24 h
Method: (§3) The melanoma cell line A2058 was expanded to 10^6/ml in RPMI-1640 culture medium. The cell suspension (20 μl) and different amount of huSM5-1 (0, 1, 5, 10, 20, 50, 100 μl) were added into each well of the 96 well plate. The antibody huSM5-1 was diluted in RPMI-1640 medium containning 10% FCS to reach a final concentration of 1 μg/μl before it was added into the well. RPMI-1640 medium containing 10% FCS was added to each well to make a final volume of 500 μl in each well. Each condition was performed in triplicate. Cells were incubated at 37° C. in a humidified incubator at 5% CO2 for 24 h. At the end of the incubation, cells were suspended and viable cells were examined under microscope or assessed using MTT.
MTT solution (5 mg/ml) was added into 0.2 ml cell suspension describe above at 1:10 dilution. The cells were then incubated at 37° C. for 30 min and optical adsorption at 570 nm for each sample was read.

melanoma cell line A2058 [5] = assay: Viable cell count after huSM5-1 treatment; assay type: cell-based, human; settings: final volume 500 μl, 24 h, relative to wells without huSM5-1
Method: as §3
Viable cells in 0.2 ml cell suspension from each well were counted. Viable cells are expressed as percentage of viable cells compared to the wells without addition of huSM5-1.

COC(=O)CCC(NC(=O)C(NC(=O)C(C)NC(=O)OCc1ccccc1)C(C)C)C(=O)NC(CC(=O)OC)C(=O)CF (stereo not drawn) [caspase-10 inhibitor, Z-AVED-FMK] (Cbz-AVE(OMe)D(OMe)-CH2F; configuration not given here)
inhibitory rate of huSM5-1 induced apoptosis (QYC cells): 52%

CC[C@H](C)[C@H](NC(=O)OCc1ccccc1)C(=O)N[C@@H](CCC(=O)OC)C(=O)N[C@H](C(=O)N[C@@H](CC(=O)OC)C(=O)CF)[C@@H](C)O [caspase-8 inhibitor, Z-IETD-FMK] (Cbz-IE(OMe)TD(OMe)-CH2F)
inhibitory rate of huSM5-1 induced apoptosis (QYC cells): 17%

COC(=O)CC[C@H](NC(=O)[C@H](CCC(=O)OC)NC(=O)[C@H](CC(C)C)NC(=O)OCc1ccccc1)C(=O)N[C@@H](CC(=O)OC)C(=O)CF [caspase-13 inhibitor, Z-LEED-FMK] (Cbz-LE(OMe)E(OMe)D(OMe)-CH2F)
inhibitory rate of huSM5-1 induced apoptosis (QYC cells): 15%

COC(=O)C[C@H](NC(=O)[C@H](C)NC(=O)[C@@H](NC(=O)[C@H](CC(=O)OC)NC(=O)[C@@H](NC(=O)OCc1ccccc1)C(C)C)C(C)C)C(=O)CF [caspase-2 inhibitor, Z-VDVAD-FMK] (Cbz-VD(OMe)VAD(OMe)-CH2F)
inhibitory rate of huSM5-1 induced apoptosis (QYC cells): 1%

COC(=O)CC[C@H](NC(=O)[C@H](CC(=O)OC)NC(=O)OCc1ccccc1)C(=O)N[C@H](C(=O)N[C@@H](CC(=O)OC)C(=O)CF)C(C)C [caspase-3 inhibitor, Z-DEVD-FMK]
inhibitory rate of huSM5-1 induced apoptosis (QYC cells): 1%

COC(=O)C[C@H](NC(=O)[C@H](C)NC(=O)[C@@H](NC(=O)[C@H](Cc1ccc(O)cc1)NC(=O)OCc1ccccc1)C(C)C)C(=O)CF [caspase-4 inhibitor, Z-YVAD-FMK]
inhibitory rate of huSM5-1 induced apoptosis (QYC cells): 14%

COC(=O)CC[C@H](NC(=O)[C@H](Cc1c[nH]c2ccccc12)NC(=O)OCc1ccccc1)C(=O)N[C@@H](Cc1cnc[nH]1)C(=O)N[C@@H](CC(=O)OC)C(=O)CF [caspase-1 inhibitor, Z-WEHD-FMK] (Cbz-WE(OMe)HD(OMe)-CH2F)
inhibitory rate of huSM5-1 induced apoptosis (QYC cells): 27%

CC[C@H](C)[C@H](NC(=O)[C@H](CCC(=O)OC)NC(=O)[C@@H](NC(=O)OCc1ccccc1)C(C)C)C(=O)N[C@@H](CC(=O)OC)C(=O)CF [caspase-6 inhibitor, Z-VEID-FMK] (Cbz-VE(OMe)ID(OMe)-CH2F)
inhibitory rate of huSM5-1 induced apoptosis (QYC cells): 28%

COC(=O)C[C@H](NC(=O)[C@H](C)NC(=O)[C@@H](NC(=O)OCc1ccccc1)C(C)C)C(=O)CF [pan-caspase inhibitor, Z-VAD-FMK] (Cbz-Val-Ala-Asp(OMe)-CH2F)
inhibitory rate of huSM5-1 induced apoptosis (QYC cells): 72%

COC(=O)CC[C@H](NC(=O)[C@H](CC(C)C)NC(=O)OCc1ccccc1)C(=O)N[C@@H](Cc1cnc[nH]1)C(=O)N[C@@H](CC(=O)OC)C(=O)CF [caspase-9 inhibitor, Z-LEHD-FMK] (Cbz-LE(OMe)HD(OMe)-CH2F)
inhibitory rate of huSM5-1 induced apoptosis (QYC cells): 5%

B1: huSM5-1: human SM5-1 specific monoclonal antibody from phage library; VH SEQ ID NO:9, VL SEQ ID NO:10 (antibody, listed as Homo Sapiens, V domains shown)
VH: QVQLVESGGGVVQPGCSLRLSCSSSGYTFTSYTMHWVRQAPGKGLEWIGYINPYNDGGKYNEKFKWRFSISSDKSKNTLFLQSDSLTPEDTGVYYCARGSRYDWYGDYWGQGTPVTVSS
VL: DIQMTQSPSSLSGSVGDRVTITCDSSQSVLYSSKDDNYLAWYQQGPGKAPSLLIYYASDRESDVPSRFSGSGSGDDYTLTISSLQPEDAATYYCHQWFSSYTFDQGTKLNITR
Caspase-10 activity (%) (caspase-10 [1]; 50 ng/ml huSM5-1, 48 h): 13% | Caspase-10 activity (%) (caspase-10 [1]; 50 ng/ml huSM5-1, 96 h): 51% | growth inhibition ([2]; 1 ng/ml, 24 h): 7% | growth inhibition ([2]; 1 ng/ml, 48 h): ~5% | growth inhibition ([2]; 1 ng/ml, 72 h): 10% | growth inhibition ([2]; 1 ng/ml, 96 h): 2.5% | growth inhibition ([2]; 10 ng/ml, 24 h): 11% | growth inhibition ([2]; 10 ng/ml, 48 h): ~17% | growth inhibition ([2]; 10 ng/ml, 72 h): 19% | growth inhibition ([2]; 10 ng/ml, 96 h): 11% | growth inhibition ([2]; 50 ng/ml, 24 h): 29% | growth inhibition ([2]; 50 ng/ml, 48 h): about 28% | growth inhibition ([2]; 50 ng/ml, 72 h): 43% | growth inhibition ([2]; 50 ng/ml, 96 h): 36% | Caspase-10 activity (%) (caspase-10 [3]; 50 ng/ml huSM5-1, 48 h): 17% | Caspase-10 activity (%) (caspase-10 [3]; 50 ng/ml huSM5-1, 72 h): 38% | Caspase-10 activity (%) (caspase-10 [3]; 50 ng/ml huSM5-1, 96 h): 28% | Optical adsorption (%) (melanoma cell line A2058 [4]; huSM5-1 addition 1 ul (1 μg/μl)): 96.3% | Optical adsorption (%) (melanoma cell line A2058 [4]; huSM5-1 addition 5 ul (1 μg/μl)): 84.9% | Optical adsorption (%) (melanoma cell line A2058 [4]; huSM5-1 addition 10 ul (1 μg/μl)): 66.2% | Optical adsorption (%) (melanoma cell line A2058 [4]; huSM5-1 addition 20 ul (1 μg/μl)): 47.7% | Optical adsorption (%) (melanoma cell line A2058 [4]; huSM5-1 addition 50 ul (1 μg/μl)): 33.6% | Optical adsorption (%) (melanoma cell line A2058 [4]; huSM5-1 addition 100 ul (1 μg/μl)): 20.1% | Cell survival (%) (melanoma cell line A2058 [5]; huSM5-1 addition 1 μl (1 μg/μl)): 87.8% | Cell survival (%) (melanoma cell line A2058 [5]; huSM5-1 addition 5 μl (1 μg/μl)): 68.8% | Cell survival (%) (melanoma cell line A2058 [5]; huSM5-1 addition 10 μl (1 μg/μl)): 53.2% | Cell survival (%) (melanoma cell line A2058 [5]; huSM5-1 addition 20 μl (1 μg/μl)): 42.6% | Cell survival (%) (melanoma cell line A2058 [5]; huSM5-1 addition 50 μl (1 μg/μl)): 32.6% | Cell survival (%) (melanoma cell line A2058 [5]; huSM5-1 addition 100 μl (1 μg/μl)): 22.6%
